Here are results for two molecules from paper PMC4721540, “Selective activators of protein phosphatase 5 target the auto-inhibitory mechanism” (Bioscience Reports, 2015).

First the molecules themselves.
B1: PPH-5 (protein phosphatase homologue), PP5 from nematode origin (enzyme, C. elegans, UniProt Q9NES8 1-496, looked up)
chain: MAATITDDIVATVLESIEEKSYEDEKEKAGMIKDEANQFFKDQVYDVAADLYSVAIEIHPTAVLYGNRAQAYLKKELYGSALEDADNAIAIDPSYVKGFYRRATANMALGRFKKALTDYQAVVKVCPNDKDARAKFDECSKIVRRQKFEAAISTDHDKKTVAETLDINAMAIEDSYDGPRLEDKITKEFVLQLIKTFKNQQKLHKKYAFKMLLEFYNYVKSLPTMVEITVPTGKKFTICGDVHGQFYDLCNIFEINGYPSETNPYLFNGDFVDRGSFSVETIFTMIGFKLLYPNHFFMSRGNHESDVMNKMYGFEGEVKAKYTQQMCDMFTETFCWLPLCHLINEKIFVCHGGLFKEDGVTLEDIRKTDRNRQPPDEGIMCDLLWSDPQPINGRSPSKRGVGCQFGPDVTSKWCETNGIEYVVRSHEVKPEGYEMHHNGQCFTVFSAPNYCDQMNNKGAFITITGDNLTPRFTPFDAVPHPKLPPMAYANSLFGFN
notes: PPH-5, the protein phosphatase 5 homologue of C. elegans; also called nematode PPH-5; PPH-5 (C. elegans); source: cloning and purification as described before [32-35]

The target in one assay is T1, YFP-CeHsp90/DAF-21 (C. elegans, UniProt Q18688 1-702).
T1 construct: Hsp90 of C. elegans (CeHsp90/DAF-21); Detected in the AUC by YFP fluorescence; also called YFP–Hsp90; YFP-tagged Hsp90; source: cloning and purification as described before [32-35]
As to the kind of experiment: AUC; sedimentation velocity with fluorescence detection; 300 nM labelled YFP–Hsp90, 3 μM PPH-5; 40 mM HEPES/KOH, pH 7.5, 20 mM KCl, 1 mM DTT; 20°C, 142000 g, 12 h; P5SAs at maximal soluble concentrations or 60 μM C-terminal Hsp90/DAF-21 peptide added where indicated. Particulars: both partners purified.

The target of assay [1] is B1. Described as above. Particulars: both partners purified.

On to B1, for which the binding result with YFP-CeHsp90/DAF-21 was “binds”.

B2: C-terminal Hsp90/DAF-21 peptide (AEEDASRMEEVD) (peptide)
peptide: AEEDASRMEEVD
notes: C-terminal peptide of Hsp90/DAF-21 of C. elegans; also called MEEVD peptide; MEEVD-containing peptide; source: bought: Biomatik
As to B2, in assay [1], the binding result is recorded as “binds”.
